Reference: publication PMC11075132, “A transaminase-mediated aldol reaction and applications in cascades to styryl pyridines” (Catalysis Science & Technology, 2024)

Substrate: NCCc1ccc(O)cc1
Assay: purified protein
Type: biochemical, Chromobacterium violaceum
Conditions: apparent; transaminase reaction; 0.1 eq. PLP, 1 eq. pyruvate as amine acceptor; substrate 4a taken from context

B1: CvTAm (Chromobacterium violaceum ATCC 12472) (protein)
chain: MQKQRTTSQWRELDAAHHLHPFTDTASLNQAGARVMTRGEGVYLWDSEGNKIIDGMAGLWCVNVGYGRKDFAEAARRQMEELPFYNTFFKTTHPAVVELSSLLAEVTPAGFDRVFYTNSGSESVDTMIRMVRRYWDVQGKPEKKTLIGRWNGYHGSTIGGASLGGMKYMHEQGDLPIPGMAHIEQPWWYKHGKDMTPDEFGVVAARWLEEKILEIGADKVAAFVGEPIQGAGGVIVPPATYWPEIERICRKYDVLLVADEVICGFGRTGEWFGHQHFGFQPDLFTAAKGLSSGYLPIGAVFVGKRVAEGLIAGGDFNHGFTYSGHPVCAAVAHANVAALRDEGIVQRVKDDIGPYMQKRWRETFSRFEHVDDVRGVGMVQAFTLVKNKAKRELFPDFGEIGTLCRDIFFRNNLIMRACGDHIVSAPPLVMTRAEVDEMLAVAERCLEEFEQTLKARGLA
notes: wild type, recombinant in E. coli, purified; homodimer; PLP enzyme; catalytic Lys288
B1 gave a Km of 1690 µM and a kcat of 6.04 s⁻¹.
